The target of the data set is T1, BMC10 (uncultured bacterium (metagenome)).
T1 chain: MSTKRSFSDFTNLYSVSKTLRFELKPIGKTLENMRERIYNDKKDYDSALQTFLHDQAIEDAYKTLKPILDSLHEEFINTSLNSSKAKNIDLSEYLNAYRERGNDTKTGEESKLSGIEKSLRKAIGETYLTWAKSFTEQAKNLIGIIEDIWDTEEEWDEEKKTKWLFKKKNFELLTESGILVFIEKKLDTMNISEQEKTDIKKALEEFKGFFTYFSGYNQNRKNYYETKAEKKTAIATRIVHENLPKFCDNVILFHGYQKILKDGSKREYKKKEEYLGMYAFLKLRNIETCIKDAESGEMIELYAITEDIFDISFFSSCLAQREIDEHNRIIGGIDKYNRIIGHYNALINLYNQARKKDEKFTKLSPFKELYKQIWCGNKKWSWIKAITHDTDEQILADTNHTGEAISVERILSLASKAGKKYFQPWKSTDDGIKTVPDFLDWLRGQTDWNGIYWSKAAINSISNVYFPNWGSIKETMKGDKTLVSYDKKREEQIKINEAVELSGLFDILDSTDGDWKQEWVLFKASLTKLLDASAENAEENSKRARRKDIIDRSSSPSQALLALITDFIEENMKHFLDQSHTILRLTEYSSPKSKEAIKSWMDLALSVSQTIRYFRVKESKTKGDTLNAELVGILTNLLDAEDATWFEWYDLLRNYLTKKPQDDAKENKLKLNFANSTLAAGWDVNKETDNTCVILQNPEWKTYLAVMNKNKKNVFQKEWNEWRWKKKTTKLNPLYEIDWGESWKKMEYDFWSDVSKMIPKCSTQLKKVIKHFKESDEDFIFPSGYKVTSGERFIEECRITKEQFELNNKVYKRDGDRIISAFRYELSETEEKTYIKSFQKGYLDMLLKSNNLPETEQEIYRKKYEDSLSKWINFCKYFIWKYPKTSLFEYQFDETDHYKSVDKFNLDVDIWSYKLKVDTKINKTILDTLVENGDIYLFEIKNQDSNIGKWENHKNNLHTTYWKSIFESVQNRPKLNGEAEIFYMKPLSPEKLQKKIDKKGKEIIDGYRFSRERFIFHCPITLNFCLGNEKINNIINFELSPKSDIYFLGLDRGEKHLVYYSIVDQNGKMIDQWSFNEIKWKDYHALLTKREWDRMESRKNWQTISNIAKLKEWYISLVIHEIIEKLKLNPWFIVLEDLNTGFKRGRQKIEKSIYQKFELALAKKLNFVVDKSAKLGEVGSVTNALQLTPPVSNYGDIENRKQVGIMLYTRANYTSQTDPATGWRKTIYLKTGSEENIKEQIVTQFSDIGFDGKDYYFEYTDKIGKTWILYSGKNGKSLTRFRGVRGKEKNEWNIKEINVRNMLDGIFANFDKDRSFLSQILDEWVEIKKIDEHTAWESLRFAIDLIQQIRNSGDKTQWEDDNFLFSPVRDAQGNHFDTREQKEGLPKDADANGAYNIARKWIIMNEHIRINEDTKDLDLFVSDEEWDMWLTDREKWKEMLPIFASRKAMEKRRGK
The data set is described as follows: cell_activity; PAM not stated; E. coli depletion, 30 C. In outline: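 E. coli carrying arabinose-induced (0.2%) BMC nuclease, grown at 30° C., made electrocompetent and electroporated with 50-100 ng plasmid carrying gRNA against malQ. Transformants plated on selective M9-glucose agar with kanamycin/ampicillin (± nourseothricin), and growth scored after 48 h at 30° C.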

B1: malQ gRNA (BMC stem-loop + 24 nt spacer) ; malQ protospacer (ssRNA ; dsDNA)
RNA: GAUUUCUACUAUUGUAGAUGUGGCGGUACGUUGAUGCAUCGCG
DNA 1: GTGGCGGTACGTTGATGCATCGCG
DNA 2: CGCGATGCATCAACGTACCGCCAC
For the molecule B1, the activity is more than 99.9 % colony reduction.

The values above are taken from patent publication US20250277199, “NOVEL CRISPR-CAS NUCLEASES FROM METAGENOMES” (Brain Biotech AG, published 2025).
